Experimental data reported in patent publication US20250320281A1.

Tests used:
Experiment in all cases: cell-based or functional assay
[1] = target: HIV-1 Env of isolate APV13 (clade B) on pseudovirus (HIV-1)
[2] = target: HIV-1 Env of isolate 93UG077 (clade A) on pseudovirus (HIV-1)
[3] = target: HIV-1 Env of isolate MGRM-C-027 (clade C) on pseudovirus (HIV-1)
[4] = target: HIV-1 Env of isolate 92RW020 (clade A) on pseudovirus (HIV-1)
[5] = target: HIV-1 Env of isolate JRFL (clade B) on pseudovirus (HIV-1)
[6] = target: HIV-1 Env of isolate APV6 (clade B) on pseudovirus (HIV-1)
[7] = target: HIV-1 Env of isolate MGRM-D-018 (clade D) on pseudovirus (HIV-1)
[8] = target: HIV-1 Env of isolate MGRM-D-001 (clade D) on pseudovirus (HIV-1)
[9] = target: HIV-1 Env of isolate MGRM-C-026 (clade C) on pseudovirus (HIV-1)
[10] = target: HIV-1 Env of isolate JRCSF (clade B) on pseudovirus (HIV-1) (UniProt P20871)
[11] = target: HIV-1 Env of isolate 93IN905 (clade C) on pseudovirus (HIV-1)
[12] = target: HIV-1 Env of isolate 92BR020 (clade B) on pseudovirus (HIV-1)
[13] = target: HIV-1 Env of isolate 94UG103 (clade A) on pseudovirus (HIV-1)
[14] = target: HIV-1 Env of isolate APV17 (clade B) on pseudovirus (HIV-1)

PGT-121 (4838_L06; 4873_E03) human monoclonal anti-HIV antibody
IC80 (pseudovirus neutralization) [1]: 1.31 µg/mL | IC90 (pseudovirus neutralization) [1]: 2.8 µg/mL | IC95 (pseudovirus neutralization) [1]: 5.15 µg/mL | IC90 (pseudovirus neutralization) [2]: 0.369 µg/mL | IC95 (pseudovirus neutralization) [2]: 0.74 µg/mL | IC80 (pseudovirus neutralization) [3]: 0.0829 µg/mL | IC90 (pseudovirus neutralization) [3]: 0.374 µg/mL | IC95 (pseudovirus neutralization) [3]: 3.14 µg/mL | IC80 (pseudovirus neutralization) [4]: 0.0188 µg/mL | IC90 (pseudovirus neutralization) [4]: 0.0361 µg/mL | IC95 (pseudovirus neutralization) [4]: 0.0671 µg/mL | IC80 (pseudovirus neutralization) [5]: 0.0806 µg/mL | IC90 (pseudovirus neutralization) [5]: 0.151 µg/mL | IC95 (pseudovirus neutralization) [5]: 0.267 µg/mL | IC80 (pseudovirus neutralization) [6]: 0.145 µg/mL | IC95 (pseudovirus neutralization) [6]: 0.569 µg/mL | IC80 (pseudovirus neutralization) [7]: 0.0231 µg/mL | IC90 (pseudovirus neutralization) [7]: 0.0414 µg/mL | IC95 (pseudovirus neutralization) [7]: 0.0715 µg/mL | IC80 (pseudovirus neutralization) [8]: 3.29 µg/mL | IC90 (pseudovirus neutralization) [8]: 6.26 µg/mL | IC95 (pseudovirus neutralization) [8]: 9.39 µg/mL | IC95 (pseudovirus neutralization) [9]: 0.0687 µg/mL | IC90 (pseudovirus neutralization) [10]: 0.223 µg/mL | IC95 (pseudovirus neutralization) [10]: 0.417 µg/mL | IC80 (pseudovirus neutralization) [11]: 0.0302 µg/mL | IC90 (pseudovirus neutralization) [11]: 0.0645 µg/mL | IC80 (pseudovirus neutralization) [12]: 0.0532 µg/mL | IC90 (pseudovirus neutralization) [12]: 0.101 µg/mL | IC80 (pseudovirus neutralization) [13]: 8.85 µg/mL | IC80 (pseudovirus neutralization) [14]: 0.371 µg/mL | IC90 (pseudovirus neutralization) [14]: 0.799 µg/mL | IC95 (pseudovirus neutralization) [14]: 1.55 µg/mL
